Measured values as given in patent US20130171178A1 (US Dept. of Health and Human Services, published 2013).

What was measured:
[1] = target: HLA-A2 MHC class I molecule (human); assay: T2 binding assay, surface HLA-A2 by flow cytometry
Procedure: Binding affinity to HLA-A2 of synthetic peptides derived from the XAGE-1 amino acid sequence was measured by using T2 cells. The T2 cell line is a T-B fusion hybridoma cell line deficient in TAP1 and TAP2 gene expression available from the ATCC under accession number CRL-1992. T2 cells suspended in Dulbecco's modified Eagles' medium (DMEM) containing 2.5% fetal calf serum (FCS) were incubated overnight with different concentrations of the peptides and 10 μg/ml of β2-microglobulin. The cells were washed twice with phosphate buffered saline (PBS) containing 2% FCS and incubated on ice with anti-HLA-A2 monoclonal antibody (BB7.2, produced by ATCC cell line HB-82) for 30 min. After a single wash, the cells were stained with FITC-labeled goat anti-mouse Ig antibody for 30 min on ice. The cells were washed twice, and expression of HLA-A2 was measured by flow cytometry. The expression level of HLA-A2 was determined as follows: mean fluorescent index (F.I.)=(mean fluorescent intensity of the sample with peptide−mean fluorescent intensity of the sample without peptide)/mean fluorescent intensity of the sample without peptide; mean fluorescent intensity=geometric mean fluorescent intensity of the sample stained with both 1st and 2nd antibody−geometric mean fluorescent intensity of the sample stained with 2nd antibody alone.
A series of peptides derived from xage-1 14 were discovered with enhanced binding to HLA-A2.

[2] = target: HLA-A2 MHC class I molecule (human); assay: T2 binding assay, surface HLA-A2 by flow cytometry (BB7.2)

GLMPSAPSPV [2L3M xage-1 14]
FI50 [1]: 0.62 µM

ATRVPEVWIL (Synthetic 10-mer) [xage-1 33 peptide]
F.I.50 [2]: > 50 µM

YVFPSAPSPV [1Y xage-1 14]
FI50 [1]: 2.36 µM

GVMPSAPSPV [3M xage-1 14]
FI50 [1]: 0.28 µM

YLFPSAPSPV [1Y2L xage-1 14]
FI50 [1]: 3.04 µM

HTASPRSPVM (Synthetic 10-mer) [xage-1 57 peptide]
F.I.50 [2]: > 50 µM

GLFPSAPSPV [2L xage-1 14]
FI50 [1]: 1.86 µM
